In FireProtDB (doi:10.1021/bi5005975):

B1: H56V, Q9NAV8 (parent)
chain: MGFKQDIATIRGDLRTYAQDIFLAFLNKYPDERRYFKNYVGKSDQELKSMAKFGDHTEKVFNLMMEVADRATDCVPLASDANTLVQMKQHSSLTTGNFEKLFVALVEYMRASGQSFDSQSWDRFGKNLVSALSSAGMK

Variants of: B1
Conditions: Amphitrite ornata; pH 7; 20 °C; Urea; UV?visible spectrophotometer; potassium phosphate 100 mM; transition: 2; reversible: yes; structure 1EW6; whole UniProt chain shown

Variant	ddG of mutation (higher = less stable)	denaturant midpoint (higher = more stable)	unfolding free energy
MGFKQDIATIRGDLRTYAQDIFLAFLNKYPDERRYFKNYVGKSDQELKSMAKFGDVTEKVFNLMMEVADRATDCVPLASDANTLVQMKQHSSLTTGNFEKLFVALVEYMRASGQSFDSQSWDRFGKNLVSALSSAGMK [H56V]	-5.1 kcal/mol	5.35 M	7.52 kcal/mol

Same assay, conditions: Amphitrite ornata; pH 7; Thermal; UV?visible spectrophotometer; potassium phosphate 100 mM; transition: 2; reversible: yes; structure 1EW6; whole UniProt chain shown

Variant	Tm	change of melting temperature, mutant - wild type (higher = more stable)
MGFKQDIATIRGDLRTYAQDIFLAFLNKYPDERRYFKNYVGKSDQELKSMAKFGDVTEKVFNLMMEVADRATDCVPLASDANTLVQMKQHSSLTTGNFEKLFVALVEYMRASGQSFDSQSWDRFGKNLVSALSSAGMK [H56V]	61 °C	7 °C
